Values of other authors, collected in PMC9852560.

Molecular target: laminin gamma1 (UniProt P02468)
Experiment: SEC

UniProt P02468, sequence (P02468 34-1607): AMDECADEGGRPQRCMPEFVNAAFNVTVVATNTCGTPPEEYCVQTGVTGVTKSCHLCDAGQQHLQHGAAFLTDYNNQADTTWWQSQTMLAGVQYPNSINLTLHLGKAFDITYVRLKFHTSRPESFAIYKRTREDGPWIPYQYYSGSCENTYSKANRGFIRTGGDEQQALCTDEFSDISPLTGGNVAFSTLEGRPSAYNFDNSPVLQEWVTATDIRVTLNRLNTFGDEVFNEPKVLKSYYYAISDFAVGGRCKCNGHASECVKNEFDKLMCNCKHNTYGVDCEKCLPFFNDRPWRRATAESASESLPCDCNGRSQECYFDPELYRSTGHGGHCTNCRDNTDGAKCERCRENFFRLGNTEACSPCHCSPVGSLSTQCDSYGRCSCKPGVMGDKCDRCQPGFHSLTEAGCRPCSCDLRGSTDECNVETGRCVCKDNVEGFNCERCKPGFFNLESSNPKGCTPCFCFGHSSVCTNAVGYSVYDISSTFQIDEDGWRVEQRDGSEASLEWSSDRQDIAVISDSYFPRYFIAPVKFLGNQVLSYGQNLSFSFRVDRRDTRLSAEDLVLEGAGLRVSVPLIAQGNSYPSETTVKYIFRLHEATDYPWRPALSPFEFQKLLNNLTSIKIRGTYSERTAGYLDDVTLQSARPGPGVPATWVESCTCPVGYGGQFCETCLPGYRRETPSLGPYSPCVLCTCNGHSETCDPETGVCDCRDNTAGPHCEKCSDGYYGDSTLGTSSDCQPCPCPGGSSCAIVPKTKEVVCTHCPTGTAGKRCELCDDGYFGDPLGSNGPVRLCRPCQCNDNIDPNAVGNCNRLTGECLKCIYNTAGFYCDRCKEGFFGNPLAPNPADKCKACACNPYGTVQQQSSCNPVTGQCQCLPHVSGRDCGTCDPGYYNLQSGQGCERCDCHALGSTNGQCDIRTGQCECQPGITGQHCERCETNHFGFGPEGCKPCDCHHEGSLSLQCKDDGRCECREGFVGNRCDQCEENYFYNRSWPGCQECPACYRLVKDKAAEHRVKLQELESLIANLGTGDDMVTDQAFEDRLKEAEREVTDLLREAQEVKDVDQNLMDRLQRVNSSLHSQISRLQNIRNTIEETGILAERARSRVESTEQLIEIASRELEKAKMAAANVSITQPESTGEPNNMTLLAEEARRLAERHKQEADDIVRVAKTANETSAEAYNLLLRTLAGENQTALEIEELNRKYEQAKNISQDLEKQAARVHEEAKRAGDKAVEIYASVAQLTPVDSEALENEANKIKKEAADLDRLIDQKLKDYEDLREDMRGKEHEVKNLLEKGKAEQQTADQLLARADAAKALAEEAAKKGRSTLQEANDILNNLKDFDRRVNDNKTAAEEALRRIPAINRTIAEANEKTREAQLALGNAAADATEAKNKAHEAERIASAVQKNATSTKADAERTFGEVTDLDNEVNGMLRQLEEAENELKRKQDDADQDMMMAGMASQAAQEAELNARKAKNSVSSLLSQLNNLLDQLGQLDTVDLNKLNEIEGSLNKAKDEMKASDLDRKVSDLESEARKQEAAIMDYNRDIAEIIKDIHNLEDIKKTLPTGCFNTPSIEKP

For laminin beta1 (from UniProt P02469), the Kd is given as 21 µM.
